Data on 1 substance can be found in publication PMC5356828.

Experiment [1] concerns the target P-glycoprotein (human (endogenous in primary skin fibroblasts)) (UniProt P08183). Briefly: co-IP; lysates of hypertrophic scar fibroblasts (HF) treated with latrunculin-A (0.2 μM) or DMSO for 12 h; IP with anti-P-glycoprotein or anti-MRP1 antibody, immunoblot for actin. Background: Immunoblotting shows a protein as a band on a membrane.
The target of experiment [2] is multidrug resistance-associated protein 1 (human (endogenous in primary skin fibroblasts)) (UniProt P33527). Described as above.

With “actin (from UniProt P60709 1-375) (natural protein)”, the figures for the percent loss of the co-precipitate after latrunculin-A in experiment [1] and in experiment [2] were 90% and 70%, respectively.
